B1: anti-HER2_DIV/DII_scFv_1 (bispecific antibody, human IgG1, kappa, L234A L235A)
heavy 1: EVQLVESGGGLVQPGGSLRLSCAASGFTFTDYTMDWVRQAPGKGLEWVADVNPNSGGSIYNQRFKGRFTLSVDRSKNTLYLQMNSLRAEDTAVYYCARNLGPSFYFDYWGQGTLVTVSSASTKGPSVFPLAPSSKSTSGGTAALGCLVKDYFPEPVTVSWNSGALTSGVHTFPAVLQSSGLYSLSSVVTVPSSSLGTQTYICNVNHKPSNTKVDKKVEPKSCDKTHTCPPCPAPEAAGGPSVFLFPPKPKDTLMISRTPEVTCVVVDVSHEDPEVKFNWYVDGVEVHNAKTKPREEQYNSTYRVVSVLTVLHQDWLNGKEYKCKVSNKALPAPIEKTISKAKGQPREPQVYTLPPSRDELTKNQVSLWCLVKGFYPSDIAVEWESYGTEWSNYKTTPPVLDSDGSFFLYSKLTVSKEEWQQGFVFSCSVMHEALHNHYTQKSLSLSPGK
heavy 2: not shown
light: not shown
B2: Bispecific Protein #2 (bispecific antibody, human IgG1, kappa, L234A L235A)
heavy 1: B1 heavy 1
heavy 2: not shown
light: not shown
B3: Bispecific Protein #9 (bispecific antibody, human IgG1, kappa, L234A L235A)
heavy 1: B1 heavy 1
heavy 2: not shown
light: not shown

Legend:
[1] = target: HER2 on HER2-overexpressing tumor cell lines (UniProt P04626 23-1255, limits assumed); assay: cell-based or functional assay
[2] = target: human TfR on cells (human, UniProt P02786 1-760); assay: cell-based or functional assay
[3] = target: T1, recombinant human TfR apical domain (human, UniProt P02786 198-378); assay: SPR (Biacore), protein captured on anti-human Fab chip, human TfR apical domain injected, 1:1 Langmuir fit
T1 construct: also called recombinant TfR apical domain; transferrin receptor protein 1
Method: Affinities of the bispecific proteins were measured by SPR using a Biacore T200 or a Biacore 8K. Biacore™ Series S CM5 sensor chips were immobilized with monoclonal mouse anti-human IgG (Fc) antibody for HER2 affinity measurements or mouse anti-human Fab for TfR affinity measurements (human antibody or Fab capture kit from GE Healthcare). Serial 3-fold dilutions of analyte (recombinant HER2 extracellular domain or recombinant TfR apical domain) were injected at a flow rate of […]. Each sample was analyzed using a 3-minute association and a 10-minute dissociation for HER2 extracellular domain binding and a 40-second association and a 3-minute dissociation for human TfR apical domain binding. After each injection, the chip was regenerated using 3 M MgCl₂ or 50 mM glycine at pH 2.0. Binding response was corrected by subtracting the RU from a flow cell capturing an irrelevant IgG at similar density. A 1:1 Languir model of simultaneous fitting of kon and koff was used for kinetics analysis. […] The two constructs are described below.

T1 sequence (P02786 198-378 limits assumed): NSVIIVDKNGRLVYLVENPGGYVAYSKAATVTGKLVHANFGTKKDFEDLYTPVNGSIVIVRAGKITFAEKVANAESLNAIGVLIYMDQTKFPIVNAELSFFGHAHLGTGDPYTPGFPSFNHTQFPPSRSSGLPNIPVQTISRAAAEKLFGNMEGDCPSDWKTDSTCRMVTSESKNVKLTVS

Binder | maximum growth inhibition, OE19 cells, WST-1 assay [1] | maximum growth inhibition, OE19 cells, WST-1 assay [2] | Kd [3]
B1 | ~80% | ~80% | 
B2 |  |  | 480 nM
B3 |  |  | 500 nM

— patent US20240392035A1 (DENALI THERAPEUTICS, published 2024)
